# ± gives the uncertainty stated by the source.
# Experiment: protein stability index of a GFP-peptide fusion (yeast GPS) (PSI 1-4); higher = more stable; sorted into four equal gates, so the index is relative within each strain
# Procedure, shortened: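 Sequencing reads from sorted gates were used to score each peptide. The library consisted of tiled 17-residue yeast protein peptides fused downstream of GFP on a Cherry-expressing plasmid, pooled and carried in yeast. Mid-log cultures in leucine-free medium were split into four equal gates by GFP/Cherry ratio, and each gate's plasmids were PCR-amplified and Illumina-sequenced. The protein stability index adds up, over all gates, the read frequency multiplied by the gate number.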
Sequence,protein stability index (doa10∆),protein stability index (pdr5∆),protein stability index (san1∆),protein stability index (ubr1∆)
SKWFNLEKIHSIEVQSL [SWI3],2.67 ± 0.24,2.45 ± 0.13,1.59 ± 0.14,2.72 ± 0.12
NQFKRIDTLLYLMTYPQ [RET1],1.4 ± 0.1,1.44 ± 0.11,1.48 ± 0.14,1.55 ± 0.067
QESFVPNSERSGTPTLK [YOR098C/NUP1],3.03 ± 0.16,2.25 ± 0.15,–,1.79 ± 0.19
LSFSWAILLIINLTQTY [NUT1],1.5 ± 0.088,1.96 ± 0.069,2.24 ± 0.097,2.06 ± 0.041
VLMGKNTMVRRAIRGFL [RPP0],3.27 ± 0.26,–,3.34 ± 0.17,–
NKANIQALIHGLNRHYY [RPN11],2.12 ± 0.082,2.52 ± 0.073,2.21 ± 0.095,2.37 ± 0.073
VRNACKRLIAHDWLNAL [YCG1],2.74 ± 0.081,2.97 ± 0.1,2.83 ± 0.075,3.19 ± 0.064
GEHISAIVPGQSISGTL [SWP82],3.41 ± 0.15,3.05 ± 0.13,2.97 ± 0.17,–
DLNKENKLLRRKLMEME [YIL149C/MLP2],3.41 ± 0.2,2.95 ± 0.21,3.33 ± 0.11,–
YENKDNLTAGIIVAGYD [PRE3],2.71 ± 0.047,2.91 ± 0.05,2.98 ± 0.04,2.78 ± 0.036
LLHEMTQTYMQMIELNR [GRR1],2.18 ± 0.072,2.11 ± 0.051,2.2 ± 0.088,1.68 ± 0.048
LNSFAFELCSLGDKELW [YJR042W/NUP85],1.76 ± 0.22,1.32 ± 0.12,–,1.34 ± 0.092
KGLIKVNGSPITLVEPE [RPS16A],3.09 ± 0.095,3.42 ± 0.13,3.06 ± 0.082,3.24 ± 0.11
KFNELVKLMKNITDYET [BRR2],1.11 ± 0.042,1.21 ± 0.06,1.21 ± 0.14,1.3 ± 0.056
MEMSEKIQFILEQMELS [RPN5],–,2.65 ± 0.24,2.35 ± 0.29,2.66 ± 0.19
ELGEIIDEDIGNNVQEN [RMP1],–,–,3.02 ± 0.26,–
RFAFSVIWELDDSANIV [DIS3],2.63 ± 0.06,2.49 ± 0.067,3.01 ± 0.063,2.62 ± 0.047
VFHAAFEGDSNMLICAP [BRR2],2.25 ± 0.048,2.41 ± 0.042,2.33 ± 0.045,2.615 ± 0.026
VRTNRFDIIEESFKGLQ [ECM29],2.6 ± 0.099,2.47 ± 0.13,2.18 ± 0.12,2.26 ± 0.1
LDVDPAKRIRVSHHATT [RPB2],3.02 ± 0.06,3.04 ± 0.06,2.79 ± 0.082,3 ± 0.044

Sequence,protein stability index (doa10∆),protein stability index (pdr5∆),protein stability index (san1∆),protein stability index (ubr1∆)
HTVFTSVNKNKRQAYAV [RPL4A],–,1.17 ± 0.2,–,–
PCLSRSCTKCPQIVVPD [DIS3],2.42 ± 0.034,2.56 ± 0.031,2.63 ± 0.033,2.57 ± 0.03
VKLPRAFIDERASDLRM [RRP43],–,1.68 ± 0.26,–,1.69 ± 0.16
GSGNNNEIESRQLTSLG [SNU114],3.4 ± 0.16,3.32 ± 0.16,–,3.19 ± 0.19
FMRNGLLEGLNEKIEKR [UBP6],2.99 ± 0.29,2.87 ± 0.18,3.21 ± 0.26,3.55 ± 0.23
ERGHPKDNARIYQVPEK [POP1],3.02 ± 0.082,3.02 ± 0.1,3 ± 0.093,3.11 ± 0.05
RVSHSDTNSSKPKNTKE [SIR4],–,3.08 ± 0.26,–,–
DESYARAYRIIRAHQTE [QCR7],3.17 ± 0.17,3.43 ± 0.17,3.14 ± 0.22,3.41 ± 0.091
NKLDEYHGLYTNYEMSY [LIN1],1.56 ± 0.065,1.78 ± 0.059,1.78 ± 0.093,1.6 ± 0.068
EENWDDVEVDDDFTNEL [SEM1],–,3.13 ± 0.22,3.05 ± 0.2,3.3 ± 0.19
QEQLKNVKNDVSFNDSQ [YIL149C/MLP2],3.27 ± 0.061,3.5 ± 0.066,3.08 ± 0.083,3.31 ± 0.053
AYLLLVQGGNAAPSAAD [RPP2B],1.84 ± 0.05,1.98 ± 0.038,1.96 ± 0.062,2.45 ± 0.061
GNSEAIPGLSAGVNNDN [RTT102],3.21 ± 0.086,3.53 ± 0.082,3.39 ± 0.069,3.47 ± 0.084
EGLIIDTDKLPIKNRTS [SIN4],2.79 ± 0.11,2.85 ± 0.086,2.76 ± 0.074,2.94 ± 0.063
LPNIYPSTRCKLKLLRM [RPT2],1.33 ± 0.037,1.43 ± 0.049,1.37 ± 0.076,1.59 ± 0.048
KCPGCLNITTVFSHAQT [RPS27A],2.76 ± 0.046,2.76 ± 0.051,2.9 ± 0.045,2.99 ± 0.043
QKKATMSAEEALVYSYI [RPC34],1.43 ± 0.14,1.08 ± 0.099,–,1.36 ± 0.22
NLQTFTHEQWSNIQRNV [SRP72],2.86 ± 0.065,3 ± 0.064,3.01 ± 0.058,2.93 ± 0.046
EGKKVMAPYLPGSRASS [RPN2],2.47 ± 0.065,2.69 ± 0.074,2.4 ± 0.072,2.54 ± 0.052
SRKGIAFGLGAIMSKSS [ECM29],1.61 ± 0.058,1.86 ± 0.054,1.64 ± 0.08,1.74 ± 0.036
